Here are results for one molecule from patent US8124586 (DYAX, dated 2012).

Test [1] addresses T1, human plasma kallikrein (human, UniProt P03952 20-638).
T1 construct: The active enzyme comes from the zymogen prekallikrein
In words: ratio of Ki,app values, reference aprotinin.

Test [2] deals with T1, human plasma kallikrein. Briefly: protease inhibition, Ki,app.
Test [3] has as its target porcine pancreatic kallikrein (porcine, UniProt P00752 8-246). In words: protease inhibition, Ki,app.
The next test deals with human plasma factor XIa (human, UniProt P03951 19-625). Briefly: protease inhibition, Ki,app.
For a further test, the target named is human plasmin (human, UniProt P00747 97-810, limits assumed). In words: protease inhibition, Ki,app.
Sequence of human plasmin (P00747 97-810 limits assumed): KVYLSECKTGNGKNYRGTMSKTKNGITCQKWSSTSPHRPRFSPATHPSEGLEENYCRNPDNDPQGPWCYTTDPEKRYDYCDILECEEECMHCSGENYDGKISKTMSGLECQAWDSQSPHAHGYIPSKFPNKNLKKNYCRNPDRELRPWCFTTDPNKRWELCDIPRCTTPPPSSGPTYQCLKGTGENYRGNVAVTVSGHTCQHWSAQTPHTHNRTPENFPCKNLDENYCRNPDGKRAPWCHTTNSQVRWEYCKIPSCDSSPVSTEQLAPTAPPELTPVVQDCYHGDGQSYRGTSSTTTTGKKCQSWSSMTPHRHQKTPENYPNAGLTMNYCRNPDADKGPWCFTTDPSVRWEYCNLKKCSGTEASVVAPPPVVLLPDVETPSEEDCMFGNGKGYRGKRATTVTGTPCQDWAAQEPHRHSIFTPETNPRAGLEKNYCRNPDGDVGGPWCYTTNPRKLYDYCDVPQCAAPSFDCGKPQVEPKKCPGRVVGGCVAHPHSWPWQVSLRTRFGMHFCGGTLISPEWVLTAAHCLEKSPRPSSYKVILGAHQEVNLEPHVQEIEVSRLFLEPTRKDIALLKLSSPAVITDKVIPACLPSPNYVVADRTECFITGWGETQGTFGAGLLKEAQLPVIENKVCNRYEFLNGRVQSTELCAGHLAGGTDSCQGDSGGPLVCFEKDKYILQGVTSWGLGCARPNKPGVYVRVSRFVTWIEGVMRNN

T1 sequence (P03952 20-638 limits assumed): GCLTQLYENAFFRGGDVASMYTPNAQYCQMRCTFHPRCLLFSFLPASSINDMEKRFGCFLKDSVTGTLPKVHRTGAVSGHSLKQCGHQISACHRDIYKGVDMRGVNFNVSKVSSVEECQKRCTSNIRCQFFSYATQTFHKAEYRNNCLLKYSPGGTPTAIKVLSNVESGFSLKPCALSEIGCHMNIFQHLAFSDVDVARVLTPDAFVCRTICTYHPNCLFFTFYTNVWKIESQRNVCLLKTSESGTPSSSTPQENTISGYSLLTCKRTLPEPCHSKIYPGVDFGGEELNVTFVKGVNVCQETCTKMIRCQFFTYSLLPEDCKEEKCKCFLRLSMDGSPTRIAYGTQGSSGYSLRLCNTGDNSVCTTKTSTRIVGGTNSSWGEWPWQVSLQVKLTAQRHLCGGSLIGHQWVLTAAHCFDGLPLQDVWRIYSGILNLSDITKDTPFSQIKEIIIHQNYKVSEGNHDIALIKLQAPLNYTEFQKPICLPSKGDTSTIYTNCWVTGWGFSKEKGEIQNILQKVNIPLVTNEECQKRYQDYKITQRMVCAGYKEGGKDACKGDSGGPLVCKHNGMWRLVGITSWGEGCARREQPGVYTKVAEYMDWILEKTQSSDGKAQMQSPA
Sequence of porcine pancreatic kallikrein (P00752 8-246): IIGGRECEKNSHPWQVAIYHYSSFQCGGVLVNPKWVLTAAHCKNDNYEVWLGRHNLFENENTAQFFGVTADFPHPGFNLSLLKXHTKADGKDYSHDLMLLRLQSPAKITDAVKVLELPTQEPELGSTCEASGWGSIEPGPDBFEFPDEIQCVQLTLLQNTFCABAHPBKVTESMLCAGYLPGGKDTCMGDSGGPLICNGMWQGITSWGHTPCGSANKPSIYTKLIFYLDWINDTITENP

B1: PEP-1 KI polypeptide (designed binder)
chain: EAMHSFCAFKADDGPCRAAHPRWFFNIFTRQCEEFIYGGCEGNQNRFESLEECKKMCTRD
notes: Non-naturally occurring Kunitz domain polypeptide from a phage display library; Molecular weight 7,054 Daltons
Consider B1, for which the “fold higher affinity (Ki,app) than aprotinin” value with human plasma kallikrein [1] is 1000 fold. In addition, the Ki with human plasma kallikrein [2] was 0.044 nM; in test [3], 27 µM; in the test with human plasma factor XIa it was 10 nM; in the test with human plasmin, 140 nM.
